The supplement of paper PMC12764529
± gives the half width of the 95% confidence interval.

Key:
[1] = folding stability dG unfold (combined trypsin and chymotrypsin); higher = more stable
In short: (§1)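 Digests were run with trypsin and chymotrypsin at 11 concentrations in threefold dilutions, plus a no-protease condition, on designed mini-proteins in a PA-tagged cDNA display construct. The mini-proteins were under 80 residues, had no cysteine, and were kept only when AlphaFold2 dimer inter-PAE was above 15. After sequencing, Bayesian fitting of the counts gave K50, from which unfolding free energy was derived against a sequence-predicted unfolded-state K50 and a shared folded-state K50, per protease or combined.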

[2] = folding stability dG unfold from trypsin proteolysis; higher = more stable
In short: as §1

[3] = folding stability dG unfold from chymotrypsin proteolysis; higher = more stable
In short: as §1

| Sequence | folding stability dG unfold [1] [kcal/mol] | folding stability dG unfold [2] [kcal/mol] | folding stability dG unfold [3] [kcal/mol] |
| --- | --- | --- | --- |
| SAGGSAGGSASIEITVKTKEEAKALAEALAKAGLVEVETLPDGSVKITVKPVKVEEVLKPPESAGGSAGGSA [r18_126_TrROS_Hall] | 2.17 ± 0.29 | 1.66 ± 0.096 | 2.61 ± 0.22 |
| SAGGSAGGSASIPELAEELGLPAEVEVTEDVEPEKPVVYPVVVREPGGGEVRVVPVVLPPGVSAGGSAGGSA [r18_313_JUSTAS] | 0.922 ± 0.16 | -0.223 ± 0.14 | 1.36 ± 0.043 |
| SAGGSAGGSASITFMLMKFDPEDNRVEVYTYKIKIERDPNGLKKFKIEPVKRQRINPDDLKAISAGGSAGGS [r12_374_TrROS] | 2.98 ± 0.25 | 2.13 ± 0.12 | 3.48 ± 0.09 |
| SAGGSAGGSASKNGKELEIKIKVDIYPFPGWGIVRVDYEIEYPDGKEQKFDLWIPVPPGDASAGGSAGGSAG [r3_330_TrROS] | 1.66 ± 0.17 | 1.65 ± 0.11 | 1.64 ± 0.088 |
| SAGGSAGGSASKPYTITLPGNYRIEVYELPDGTYLARIYFPDKPGYYALALLTDNSIYIFPSAGGSAGGSAG [r3_170_TrMRF] | 3.47 ± 0.068 | 3.05 ± 0.07 | 3.691 ± 0.019 |
| SAGGSAGGSASLEEIKERAREEILKKHPDLPPDEPLTVTVKDPNSSNEYTITFNADGTVVESAGGSAGGSAG [r3_441_JUSTAS] | 0.837 ± 0.098 | 0.677 ± 0.027 | 0.814 ± 0.052 |
| SAGGSAGGSASMTSSVSTSLNPDNPPVVLVTTTYPDGTVTLTVKDLSTGTTTSTTTTPLPSSAGGSAGGSAG [r3_299_JUSTAS] | 0.893 ± 0.059 | 1.17 ± 0.042 | 0.589 ± 0.043 |
| SAGGSAGGSASMTTLEIEIELDESDIEKVKEELKKELPKNVKVIIHAYDKNGNIIEEIEIEFSAGGSAGGSA [r18_188_JUSTAS] | 1.6 ± 0.17 | 1.33 ± 0.036 | 1.61 ± 0.097 |
| SAGGSAGGSASNPKIISVENLGNYTVVLAEDPEDGSLVLVVINPDNNSALVFKDNKPVAVFSAGGSAGGSAG [r3_297_TrMRF] | 1.45 ± 0.13 | 1.33 ± 0.025 | 1.66 ± 0.11 |
| SAGGSAGGSASPAPDTLYVPVVFDVVFPLPDGSYVLVPVLAYYQLPGGTLLASVRFAVTFDSAGGSAGGSAG [r3_484_TrMRF] | 3.86 ± 0.2 | 2.77 ± 0.16 | 4.28 ± 0.098 |
| SAGGSAGGSASPIHATVSVDPETGTYTVHYPDGSTKTITGLSPEEVAALAKEMGIDEITLESAGGSAGGSAG [r3_78_JUSTAS] | 2.81 ± 0.044 | 3 ± 0.08 | 2.64 ± 0.034 |
| SAGGSAGGSASPRTYKYKFTIKYPDGSTSEYEIVDEEDKAKEKIKKEYGAEEIELEIEPEESAGGSAGGSAG [r3_220_JUSTAS] | 0.637 ± 0.28 | -0.218 ± 0.41 | 1.39 ± 0.19 |
| SAGGSAGGSASPSYLLTVTVYRPGGNPLSRRVFPPSVSPAEVEAWLATLPSDYSWEVSREPVSAGGSAGGSA [r18_431_JUSTAS] | 2.59 ± 0.048 | 0.957 ± 0.051 | 2.95 ± 0.022 |
| SAGGSAGGSASSTLRTVRFPPDTPLEEVKEALAAEFPDRDPNIKILEVRPEDGGLVVTVEVVSAGGSAGGSA [r18_360_JUSTAS] | 1.62 ± 0.057 | 1.51 ± 0.033 | 1.58 ± 0.031 |
| SAGGSAGGSASVVVTKETLPNGETRITTTTTTTTTVTVYDNNETVTTTTTTTTTTVVPKSLLSAGGSAGGSA [r18_34_JUSTAS] | 1.38 ± 0.084 | 0.601 ± 0.055 | 1.66 ± 0.039 |
| SAGGSAGGSATIYIIMPPDDPIPPNMPIRLPDGKPVRIDVEPVPLEEDGGPIFRIEVEPGATSAGGSAGGSA [r18_476_TrROS] | -0.03 ± 0.16 | -0.181 ± 0.12 | 0.0617 ± 0.21 |
| SAGGSAGGSATLTIDELRELLEKLGIDVEELSEEEIAELLKKLYPNARVERNENGELTIHPSAGGSAGGSAG [r3_375_TrROS_Hall] | 2.99 ± 0.14 | 3.34 ± 0.096 | 2.77 ± 0.12 |
| SAGGSAGGSATPPDSSVSVKVEITVGGEKKLVTATLTTLPNGTTSLTLNFDIPPDKYELSLVSAGGSAGGSA [r18_428_JUSTAS] | 2.51 ± 0.15 | 2.52 ± 0.11 | 2.74 ± 0.09 |

| Sequence | folding stability dG unfold [1] [kcal/mol] | folding stability dG unfold [2] [kcal/mol] | folding stability dG unfold [3] [kcal/mol] |
| --- | --- | --- | --- |
| SAGGSAGGSATQTIPFENPDGHPWTGTVEKRPDGMVKIDLTFPGGEKKEFYIPPGEEIRLPFSAGGSAGGSA [r18_115_TrROS] | 0.42 ± 0.19 | 0.775 ± 0.057 | 0.0335 ± 0.24 |
| SAGGSAGGSATTIEITLPDGTKAVTLSTTSENSILLLVTAPDSPSLGFIDKNNPNNIILLKSAGGSAGGSAG [r3_450_JUSTAS] | 0.627 ± 0.093 | 0.467 ± 0.054 | 0.623 ± 0.1 |
| SAGGSAGGSATVKIVETKVGADGAVYTTALVTLPNGGVLIVKTKTYPSGESETSVTLTSGKEFSAGGSAGGS [r12_995_TrMRF] | 2 ± 0.071 | 2.21 ± 0.081 | 1.74 ± 0.045 |
| SAGGSAGGSAVITTETGGDSTVTTTTSLTGEGGTLTTTTTTTTTDGTTTTTTTTTDTGLSPTSSAGGSAGGS [r12_769_JUSTAS] | 2.16 ± 0.034 | 2.41 ± 0.062 | 1.99 ± 0.024 |
| SAGGSAGGSAVVTLSPDGRRITITSRTVTYFKVTNTDDIAIETSVETVVTPLPSLGSPEVLASAGGSAGGSA [r18_6_JUSTAS] | 2.56 ± 0.28 | 3.04 ± 0.13 | 2.1 ± 0.098 |
| SAGGSAGGSAWIPAKEIAKEIKAEYPPGKEREFRFPEEGWWIRIQVNKEGKPKVKVVPPEDISAGGSAGGSA [r18_61_TrROS] | 0.109 ± 0.16 | 0.103 ± 0.19 | 0.18 ± 0.17 |
| SAGGSAGGSAWITINDVRDYLKKEGIDPKNMSAEEIASEFKDKWPNVNIEAQPNGSAWIKPSAGGSAGGSAG [r3_375_TrROS] | 0.814 ± 0.14 | 0.785 ± 0.054 | 0.535 ± 0.36 |
| SAGGSAGGSAWMYRIKIEIYSNGKKHKYEFWIPEDNIDEVADQLPPGYKIKITDIEPWEPNSAGGSAGGSAG [r3_195_TrROS] | 2.46 ± 0.14 | 1.82 ± 0.022 | 2.73 ± 0.049 |
| SAGGSAGGSAYIPAEEIAEEVAAVLPPDEVALFPLPEKPLVVLVVREEDGVPRVLVLPPELASAGGSAGGSA [r18_61_TrMRF] | 0.261 ± 0.082 | 0.00934 ± 0.069 | 0.367 ± 0.093 |
| SAGGSAGGSAYTINIWVPPGMPKEEAADYIADWLHERHGIPDIKVSVEQDPDGMTKVTITVKSAGGSAGGSA [r18_1_TrROS] | 2.52 ± 0.085 | 2.32 ± 0.14 | 2.77 ± 0.033 |
| SAGGSAGGSAYWRIKIFYPNNGREVTIHVPGSADDILDEAKPQFGYPPDNIKKIKIEPMDNSAGGSAGGSAG [r3_79_TrROS] | 0.432 ± 0.21 | -0.409 ± 0.33 | 0.783 ± 0.35 |
| SAGGSAGGSDETLTVTRGRTETVTVRRVERRPPAAAPPLKVTLSAVLDADGRLVSVSASVELLSAGGSAGGS [r12_727_TrROS_Hall] | 1.9 ± 0.15 | 2.1 ± 0.05 | 1.88 ± 0.036 |
| SAGGSAGGSDGVIQIPIKSDDGEEFKIEIPIEQIKKMMKEGRPIKIWLFDNGKMVRPFEIPIDSAGGSAGGS [r12_991_TrROS] | 0.735 ± 0.19 | 0.428 ± 0.12 | 1.06 ± 0.15 |
| SAGGSAGGSDPLVSFPLEVELPGGEKVELHFIPGPRLVIARFPDRPVLFYTDGDGVITRVDPISAGGSAGGS [r12_47_TrMRF] | 0.0465 ± 0.064 | 0.337 ± 0.059 | -0.362 ± 0.11 |
| SAGGSAGGSDPVPIVITYPDGSTSTTLEPDKIYITYPSKGLKYVVPIDLSTNKISFSLESSLPSAGGSAGGS [r12_539_JUSTAS] | -0.254 ± 0.08 | -0.699 ± 0.12 | -0.0759 ± 0.11 |
| SAGGSAGGSDTVNVKVTVSFPPGTETKEITVNVPVVPGNPDVVKAKVDELAAAFPDAVVTAEKSAGGSAGGS [r12_795_TrMRF] | 1.6 ± 0.12 | 0.294 ± 0.078 | 1.99 ± 0.095 |
| SAGGSAGGSDYLMIWIPPDALKGMPPGQEIEFEIKFNGGEYKVKIKVMPHENGHYMIMITVEPSAGGSAGGS [r12_433_TrROS] | 4.06 ± 0.25 | 3.2 ± 0.35 | 4.59 ± 0.3 |
| SAGGSAGGSEEEVEIKVVEPVDVVVLPDGTVRRTFRVEDGALLVITVHFPPDGNPVGEIEIFPSAGGSAGGS [r20_240_TrMRF] | 1.68 ± 0.16 | 1.56 ± 0.032 | 1.64 ± 0.04 |
